# Test: yeast display, Sf9 membrane polyspecificity reagent, FACS + sequencing; frameworks hold sequencing errors
# How it was run: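 In a synthetic yeast display library (Saccharomyces cerevisiae BJ5465), nanobody expression was induced with galactose for 36–48 hours. FACS gates were set low and high (top ~1%) using anti-HA fluorescence for expression and streptavidin fluorescence for binding of the Sf9 membrane reagent. Each polyreactivity label is drawn from the gate of origin.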
row,Sequence,polyreactivity (PSR sort gate)
1,QVQLVESGGGLVQAGGSLRLSCAASGRIFGTYTMGWYRQAPGKERELVAAITTGGITNYADSVKGRFTISRDNAKNTVYLQMNSLKPEDTAVYYCNARWDYGAYEYWGQGTQVTVSS,low polyreactivity
2,QVQLVESGGGLVQAGGRLRLSCAASGSTFRYYAMGWYRQAPWKERELVAAISSTGTRTYYADSVKGRFTISRDNAKNTVYLQMNSLKPEDTAVSYCAADYVRYATRYDYWGQGTQVTVSS,high polyreactivity
3,QVQLVESGGGLVQAGGSVRLICAASGSIFYTYAMGWYRQAPGKERELVAAISKRGGSTYDADSVKGRFTISRDNAKNTVYLQMNSLKPEDTAVYYCAADTQHVYGSNFYYWGQGTQVTVSS,high polyreactivity
4,QVQLVESGGGLVQAGGSLRLSCAASGSIFHLYAMGWYRQAPGKERELVAAITWTGGSTYYADSVKGRFTISRDNAKNTVYLQMNSLKPEDTAVYYCAARQQVRLRPGPLYYYWGQGTQVTVSS,high polyreactivity
5,QVQLVESGGGLVQAGGSLRLSCAASGSTFDINAMGWYRQAPGKERHLVAAITYDTTTTYYADSVKGRFTISRDNAKNTVYLLMNSLKPEDTAVYYCAVEGLLGDTTYVQGYPYWYNYWGQGTQVTVSS,low polyreactivity
6,QVQLVESGGGLVQAGGSLRLSCAASGFTFSGYAMGWYRQAPGKERELVAAISTSGGNTYYADSVKGRFTISRDNAKNTVYLQMNSLKPEDTAVYYCAADDWPWGDAGVDYWGQGTLVTVSS,low polyreactivity
7,QVQLVESGGGLVQAGGSLRLSCAASGSIFGGNAMGWYRPAPGTVRELVAAITSSGGSTYYADSVKGRFTMSRDNAKNTVYLQMNSLNPEDTAVYYSNKAYPGRTYDYWGQGTQVTVSS,high polyreactivity
8,QVQLVESGGGLVQAGGSLRLSCAASGRTFSYYAMGWYRQAPGKERELVASISGGGRTNYADSVKGRFTISRDNAKITVYLQMNSVKPEDTAVYYCAASYQITRQYKRGYWGQGTQVTVSS,high polyreactivity
9,QVQLLEIGGGLVQAGGSLRQSCMASGSILGDRMSWYRQAPGKEHELVATIFDGGITYYADSMKGRFTISRDNAKNTVYLQMNSLRPEDTAVYYCGASFDGYRYHVYCGQGTQVTVSS,low polyreactivity
10,QVQLVESGGGLVQAGGSLRLTCAASGSIFEYNGMGWYRQAPGKERELVAAITTTGTTDYADSVKGRFTISRDNAKNTVYLQMNSLKPEDTAVDYCAAEYTYYYTGEYDYWGQGTQVTVSS,low polyreactivity
11,QVQLVESGGGLVQAGGSLRLSCAASGFTFNYNAMGWYRQAPRKERELVAAISRSGGRTYYADSVKGRFTISRDKAKNTVYLQMNSLKPADTAVYYCAADSRTNGYDYWGQGTQVTVSS,high polyreactivity
12,QVQLVESGGGLVQAGGSLRLSCAASGSIFGLNAMGWYRQAPGKERELVAAIDIIGGSTYYADSVKGRFTISRDNAKNTVYLQMNSLKPEDTAVYYCAAEADFWRFVEYDYWGQGSQVTVSS,low polyreactivity
13,QVQLVESGGGLVQAGGSLRLSCAPSGSIFERYAMGWYRHAPGKERELVAAISWRGGSTYYADSVKGRFTISRDNAKNTVYLQMNSLIQEDTAVYYCAADSRTCYYYWGQGTQVTVST,high polyreactivity
14,QVQLVESGGGLVHAGGSLRVSCAASGFTFYLYTMGWYRQAPGTERELVAAINYSGGRTYYADSVKGRFTISRDYAKNSVYLQMNSLKPEDTAVYYCYPRVKNLQAYDYWGQGTQVTVSS,high polyreactivity
15,QVQLVQSGGGLVQAGGSLRLSCAASGRIFVNNAMGWYIQAPGKERELVAAISVSGTTTYYADSVKGRFTISRDNAKNTVYLQMNSLKPEDTAVFYCAAEGSTYQGAPGVYYWGQGTQVTVSS,high polyreactivity
16,QVQLVESGGGLVQAGGSLRLSCAASGFTFVNNAMGWYRQAPGKERELVAAISGGGTTNYADSVKGRFTISRDNAKNTVYLQMNSLKPEDTAVYYCAARRYFGLWYFWYDYWGQGTQVTVSS,high polyreactivity
17,QVQLVESGGGLVQAGGSLRLSSAASGSTFYYNAMGWYRQAPGKEREFVAAITYTGGSTDYADSVKGRFTISRDNAKNTVYLQMNSLKPEDTAVYYCAKGTYGYISTWYDYWGQGTQVTVSS,low polyreactivity
18,QVQLVESGGGLVQAGGSLRLSCAASGRTFRRYVMGRYRQAPGKEMEMVARITTSGGNTYYADSVKGRFTISRDNAKITVYLQMNSMKPEVTAVYYCAADFLRTYKEYNLGYWGQGTQVTVSS,low polyreactivity
19,QVQLEESGGGLVQAGGSLRLSCAASGGIFLGYAMGWYRQAPGTERELVAAISDSGGSTDYADSVKGRFTISRDHAKTTVYLQTHSLKPDDTAVYYCAAERRSTAGWLYDYWGQGTQVTVSS,high polyreactivity
20,QVQLVESGGGLVQAGGSLRLSCAASGSTFYFNAMGWYRQAPGKERELVATIRSGDSTYYADSVKGRFTISSDNAKNTVYLQMNSLKPVDTAVYSCPGPLPYYGQYDYWGQGTQVTVSS,low polyreactivity
21,QVQLVESGGGLVQAGGSLRLSCAASGRLFTIYAMGGYTQAPGKERELVATISRRGGSTYYADSVKGRFTISRDNAKNTVYLQMNSLKPEDTAVYYCAKRQRSKAAVAGYVDATGEMDYWGQGTQVTVSS,high polyreactivity
22,QVQLVESWGGLVQAGGSLRLSCAASGLTFVKNAMGWYRQAPGKERELVAAITRTGGSTYYADSVKVRFTISRDNAKNTFYLQMNSLKPEDPAVYYCASRTPSPRRTKTAVDYWGQGTQVTVSS,high polyreactivity

row,Sequence,polyreactivity (PSR sort gate)
1,QVQLVESGGGLDQAGGSLRLSCAASGSIFQYYAMGWYRQAPGKEREFVAAITSDGSSTYYADSVKGRFTISRDNAKNTVYLQMNSLKPEDTAVYYCAAGWVGYRLPSMYYWGQGTQVTVSS,high polyreactivity
2,QVQLVESGGGLVQAGGSLRLSCAASGRIFRNYAMGWYRQAPGKERELVAAISGNGGNTYYADSVKGRFTISRDNAKNTVYLQMNSLKPEDTAVYYCNAYHWLYSYRYSRTYDYWGQGTQVTVSS,high polyreactivity
3,QDQLVESGGGLVQAGGSLRLSCADSGRIFCINAMGWYRQAPGKERELVAAINWSGGSTYYADSVKGRFTISRDNAKNTVYLQMNSLKPEDTAVYYCAAQKYKRVGYWGQGTQVTVSS,high polyreactivity
4,QVQLEDSGGGLVQAGGSLRLSCAASGRIFYAYAMGWYRPAPGKEREFVASISGSGGSTYYADSVKGRFTISRDNAKNTVYLQMNSLKPEDTAVYYCAKRYPFFSSGLSPYNYWGQGTQVTVSS,high polyreactivity
5,QVQLVESGGGLVQAGGSLRLSCADSGSIFYYNAMGWYRQAPGKERELVAAISVSGGSTYYADSVKGRFTISRDNAKNTVYLQMNSLKPEDTAVYYCAAEWLYYYWLPGRADYLEYDYWGQGTQVTVSS,low polyreactivity
6,QVQLVESGGGLVQAGGSLRLSCAASGRIYTYYTMGWYRQAPGKERELVAAITVRGGRTYYADSVKGRFTISRDNAKNTVYLQMNSLKPEDTAVYYCAARGLVRSYDYWGQVTQVTVSS,high polyreactivity
7,QVHLVESVGGLVQAGGSLRLSCAASGRIFYRNAMGCYRQAPGKERELVAAINTGGDGTYYADSVKGRFTISRDNAKNTVYLQMNSLKPEDTAVYYCAADRSSFYWSHGTVYGYDYWGQGTQVTVSS,low polyreactivity
8,QVQLVESGGGLVQAGGSLRLSCAASGSTFVYNALGWDRQAPGKERELVAAITRRGGTTYYADSVKGRFTMSRDNAKNTVYLQMNSLKQEDTAVYYCAARTRGTAYNYSGQGTQVTVSS,high polyreactivity
9,QVQLVESGGGLVQAGGSLRLSCAASGRIFVVYAMGWYRQAPGKERELVATITSGGSTYYADSVKGRFTISRDNAKNTVYLQMNSLKPEDTAVYYCAAYAYIFLDWGGYPYYLYEYDYWGQGTQVTVSS,low polyreactivity
10,QVHLVESGGGLVQAGGSLRLSCAASGRTFFWYVMGWYRQAPGKERELVATISYGGITYYADSVKGRFTISRDNAKNTVYLQMNSLKPEDTAVYYCAARRSLYYSTVKFDGYYYWGQGTQVTVSS,high polyreactivity
11,QVQLVDSGGGLVQAGGSLRLSCAASGRIFSWYTMGWYRQAPGKERELVAVITSGGTTKYADSVKGRFTISRDNAKNTVYLQMNSLKPEDTAVYYCNGAGRDYAVRWGSFDYWGQGTQVTVSS,low polyreactivity
12,QVQLVESGGGLVQAGGSLRLSCAASGYTFYQNAMGWYRQAPGKERELVAAITFRTGSTYYADSVKGRFTISRDNAKNTVYLQMNSLKPEDTAVYYCAATRFLRDWWYGYWGQGTQVTVSS,low polyreactivity
13,QVQLVESVGGLVQAGGSLRLSCSASGITFSYNAMGWYRQAPGKERELVAAISDIGGSTYYADSVKGRFTISRDNAKNTVYLQMNSLKPEDTAVYYCAADEYYQDEYDYWGQGTQVTVSS,low polyreactivity
14,QVQLVESGGGLVHAGGSLRLSCAASGRTFTLYAMGWYRQAPGKERELVAAITRTGRTTYADSVKGRFTISRDNAKNTVYLQMNSLKPEDTAVYYCAAEVEYTSASIVYYEYEYWGQGTQVTVSS,high polyreactivity
15,QFQLVESGGGVVQAGGSLRLSCAASGSIIYVNAMGWYRQAPGKERELVAAINYSGDSTYYADSVKGRFTISRDNAKNTVYLQMNSLKPEDTAVYYCAADIYVYYAPVYQYYWYDSWGQGTQVTVSS,high polyreactivity
16,QVQLVESGGGLVQAGGSLRLSCAASGLTFDSNVMRWYRQAHGKEMELVAAITSSGRTYYADSVKGRFTISRDNAKNTFYLQMNSLKPEDTAVYYCAARNLAYTRKGYYYWGQGTQVTVSS,high polyreactivity
17,QVQLVESGGGLVQAGGSLRLSCAASGSIFQIYAMGWYRQAPGKESELVATINRGDNTYYADSVKGRFTISRDNAKNTVYLQMHSLTPEDSAVYYCNVDRQVITGRYIGDYWGQGTLVTVSS,low polyreactivity
18,QVQLVESGGGLVQAGGSLRLSCAATGSIFYGNAMGWYRQAPGKERELVAAISWGAGSTYYADSVKGRFTISRDNAKNTVYLQMNSLKPEDTAVYYCNTLQITGWYDYWGQGTQVTVSS,high polyreactivity
19,QVQLVESGGGLVQPGGSLRLSCAASGSTLTLYDMGWYRQAPGKEWEFVAAIRSHGVSTYYADSEKGRFTISRDNAKNTVYLQMNSLQPEDTAVYYCSSVYIPGGRYTYFPYKRYDYWGQGTKVTVSS,high polyreactivity
20,QVQLVESGGGLVQAGGSLRLSCAASGRIFYSNAMGWYRQAPGKERELVAAISRSGVRTYYADSVKGRFTISRDNAKNTVYLQMNSLKPEDTAVYYCAADLYWWSYYYWGQGTQVTVSS,low polyreactivity
21,QVQLVESGGGLVQAGGSLRLSCAASGTISASYAMGWYRQATGKERELVAAISSGGDTNYADSVKGRFTISRDNAKNTVYLQMNSLKPEDTAVYYCAADTDSDQGSEYDYWGQGTQVTVSS,low polyreactivity
